Abundance fitness data for 167 variants are collected here from the Human Domainome abundance scans (Beltran et al. 2025).

To fix the notation:
B1: Dynamin-binding protein, residues 242 to 304; numbered along this chain, Q6XZF7 (parent)
chain: EEPGTYGVALYRFQALEPNELDFEVGDKIRILATLEDGWLEGSLKGRTGIFPYRFVKLCPDTR

± gives the uncertainty stated by the source.

Variants of B1 are the subject of the data set. In words: abundance fitness (aPCA) (normalised: wild type 0, dead -1); higher = more abundant; growth selection in yeast, the domain comes from the species named. Conditions: Homo sapiens.
Consider I31S, for which the abundance fitness was -0.879 ± 0.11. In the case of I31W it was -0.901 ± 0.36; in that of I31D, -0.743 ± 0.13; in that of I31K, -0.85 ± 0.31.

As for I31G, the abundance fitness is -0.512 ± 0.077.

Regarding R47G, the abundance fitness is -0.604 ± 0.068. In the case of R47W it was -0.676 ± 0.24; in that of R47F, -0.713 ± 0.086. Regarding R47M, the abundance fitness was -0.689 ± 0.18. On to R47Y, for which the abundance fitness was -0.282 ± 0.073. As to V8Q, the abundance fitness is -0.449 ± 0.35. In the case of V8N it was -0.681 ± 0.12.

In the case of V8A, the abundance fitness is -0.691 ± 0.13. In the case of V8W it was -0.738 ± 0.2; in that of A33G, -0.201 ± 0.059. In the case of A33R it was 0.033 ± 0.067; in that of A33E, -0.578 ± 0.26. As to A33W, the abundance fitness is -0.671 ± 0.26. In the case of A33V it was -0.445 ± 0.084. In the case of A33I it was -0.703 ± 0.13; in that of A33T, -0.009 ± 0.078; in that of E36F, -0.711 ± 0.1. In the case of E36G it was -0.167 ± 0.056; in that of E36V, -0.777 ± 0.093; in that of I29Q, -0.955 ± 0.41. Y53D: the abundance fitness is 0.227 ± 0.053. For Y53P, the abundance fitness is 0.37 ± 0.1. In the case of Y53K it was 0.251 ± 0.29. Take Y53A: the abundance fitness is 0.338 ± 0.079. In the case of Y53H it was -0.006 ± 0.082; in that of Y53L, 0.077 ± 0.061. In the case of E17F it was -0.513 ± 0.067; in that of E17G, 0.072 ± 0.048. For the variant E17T, the abundance fitness is -0.157 ± 0.074.

In the case of E17I, the abundance fitness was -0.783 ± 0.12. For E17W, the abundance fitness was -0.488 ± 0.14.

E17H: the abundance fitness stood at 0.229 ± 0.056. In the case of L35C, the abundance fitness is -0.178 ± 0.053. As for L35K, the abundance fitness worked out at 0.137 ± 0.13. Turning to L35Q, the abundance fitness was 0.009 ± 0.23. In the case of L35I it was -0.131 ± 0.063. P18W: the abundance fitness was -0.424 ± 0.11. In the case of P18M it was -0.419 ± 0.19; in that of P18N, -0.275 ± 0.071.

P18A: the abundance fitness was -0.188 ± 0.063. With P18E, the abundance fitness is -0.006 ± 0.13. In the case of P18G it was -0.492 ± 0.061; in that of P18C, -0.412 ± 0.061. In the case of P18Q it was -0.042 ± 0.2; in that of L58F, -0.186 ± 0.048; in that of L58V, -0.064 ± 0.044. In the case of L58P it was -0.379 ± 0.092.

For the variant L58D, the abundance fitness is -0.366 ± 0.069. L58C: the abundance fitness is -0.409 ± 0.06. With L58Y, the abundance fitness is -0.473 ± 0.06. In the case of L58K it was -0.55 ± 0.14; in that of L58M, -0.032 ± 0.1. In the case of E20C it was -0.014 ± 0.05; in that of E20R, -0.258 ± 0.062; in that of E20L, -0.067 ± 0.056.

With E20D, the abundance fitness is -0.631 ± 0.098.

In the case of E20N, the abundance fitness is -0.227 ± 0.071.

For the variant Y11L, the abundance fitness is -0.084 ± 0.056. Turning to Y11H, the abundance fitness is 0.022 ± 0.067. Y11F: the abundance fitness turned out to be 0.01 ± 0.048.

With Y11A, the abundance fitness was determined as 0.217 ± 0.061. Take Y11Q: the abundance fitness was 0.026 ± 0.21.

Consider Y11C, for which the abundance fitness is -0.124 ± 0.061. In the case of Y11E it was -0.02 ± 0.1.

Consider Y11M, for which the abundance fitness is -0.024 ± 0.11. In the case of T48P, the abundance fitness is -0.867 ± 0.18.

Consider T48V, for which the abundance fitness was -0.075 ± 0.048.

As for T48R, the abundance fitness is -0.105 ± 0.062. In the case of T48C it was -0.286 ± 0.062; in that of T48A, -0.699 ± 0.11; in that of Y6G, -0.696 ± 0.079. Consider Y6E, for which the abundance fitness is -0.718 ± 0.2. In the case of Y6D it was -0.754 ± 0.11; in that of Y6H, -0.498 ± 0.1; in that of Y6W, -0.498 ± 0.27.

As for Y6T, the abundance fitness was -0.45 ± 0.094.

Consider Y6K, for which the abundance fitness was -0.653 ± 0.2.

For the variant Y6M, the abundance fitness was -0.394 ± 0.16. In the case of T62W it was -0.37 ± 0.19; in that of T62F, -0.137 ± 0.057; in that of T62Q, -0.092 ± 0.1. In the case of T62E it was -0.004 ± 0.17; in that of R30W, -0.921 ± 0.24. Consider R30I, for which the abundance fitness is -0.454 ± 0.087.

With R30F, the abundance fitness was -0.462 ± 0.1. In the case of R30K it was 0.268 ± 0.13. As for R30E, the abundance fitness was -0.328 ± 0.25. In the case of R30P it was -0.15 ± 0.17; in that of T5E, -0.61 ± 0.17; in that of T5R, -0.225 ± 0.072. Turning to T5D, the abundance fitness was -0.587 ± 0.099. In the case of T5S it was -0.282 ± 0.055. Regarding G38N, the abundance fitness is -0.539 ± 0.1. Regarding G38A, the abundance fitness is -0.842 ± 0.12. Turning to G38R, the abundance fitness is -0.482 ± 0.09. As to G38I, the abundance fitness was -0.769 ± 0.1. Regarding G38F, the abundance fitness was -0.71 ± 0.11. Turning to L32G, the abundance fitness was -0.635 ± 0.074. In the case of L32R it was -0.592 ± 0.077; in that of L32T, -0.312 ± 0.073; in that of L32C, -0.657 ± 0.098. In the case of L40F it was -0.393 ± 0.065; in that of L40R, -0.627 ± 0.08.

For L40M, the abundance fitness is -0.074 ± 0.12. In the case of L40A it was 0.18 ± 0.052; in that of L40T, -0.394 ± 0.085. In the case of L16G it was 0.073 ± 0.067; in that of L16C, 0.09 ± 0.054.

For L16V, the abundance fitness amounted to 0.117 ± 0.05. For the variant L16A, the abundance fitness came out at 0.187 ± 0.064. In the case of L16F it was -0.067 ± 0.068; in that of P52W, -0.583 ± 0.22.

For P52H, the abundance fitness was -0.734 ± 0.13. For the variant P52S, the abundance fitness is -0.85 ± 0.074. Consider P52Y, for which the abundance fitness is -0.569 ± 0.11. In the case of P52G it was -0.534 ± 0.054.

P52T: the abundance fitness was -0.783 ± 0.13.

On to P52R, for which the abundance fitness is -0.855 ± 0.088. For P52N, the abundance fitness is -0.767 ± 0.11. In the case of P52C it was -0.7 ± 0.082. In the case of R54A it was -0.049 ± 0.063; in that of R54W, -0.292 ± 0.12; in that of R54Y, -0.286 ± 0.07. In the case of R54V it was -0.07 ± 0.1. With R54M, the abundance fitness is -0.583 ± 0.16.

R54C: the abundance fitness is -0.373 ± 0.071.

F55D: the abundance fitness was -0.621 ± 0.051. In the case of F55S it was -0.348 ± 0.035; in that of F55V, -0.614 ± 0.043; in that of F55C, -0.075 ± 0.036. On to Q14N, for which the abundance fitness is -0.198 ± 0.065.

As to T34N, the abundance fitness was -0.289 ± 0.064. In the case of T34L it was -0.41 ± 0.071; in that of T34H, 0.067 ± 0.054. In the case of T34F it was -0.063 ± 0.058; in that of T34Q, -0.183 ± 0.12; in that of T34K, -0.036 ± 0.095. In the case of E2H it was 0.127 ± 0.069; in that of E2R, -0.321 ± 0.085. On to E2C, for which the abundance fitness was -0.367 ± 0.082.

As for E2G, the abundance fitness was -0.166 ± 0.054. On to P60I, for which the abundance fitness is -0.18 ± 0.06. In the case of P60N it was -0.26 ± 0.066; in that of E41C, -0.115 ± 0.065. In the case of E41P it was -0.669 ± 0.16. In the case of E41K it was 0.017 ± 0.19; in that of L21V, -0.619 ± 0.097.

As for L21F, the abundance fitness is -0.771 ± 0.091. Regarding L21I, the abundance fitness was -0.636 ± 0.19. Consider L21A, for which the abundance fitness was -1.01 ± 0.17. As to L21G, the abundance fitness is -0.96 ± 0.13.

As to L21T, the abundance fitness is -0.522 ± 0.09.

In the case of L21N, the abundance fitness is -0.843 ± 0.28. Turning to L21R, the abundance fitness is -0.839 ± 0.11.

As for L21S, the abundance fitness was -0.542 ± 0.078. For the variant F51H, the abundance fitness is -0.792 ± 0.12.

For the variant F51V, the abundance fitness is -0.224 ± 0.055. For the variant F51S, the abundance fitness was -0.794 ± 0.081. In the case of F51R it was -0.655 ± 0.097. In the case of F51K, the abundance fitness is -0.623 ± 0.27. In the case of F51A, the abundance fitness is -0.919 ± 0.14. In the case of F51T it was -0.681 ± 0.11.
